# Laboratory results reported in patent US20090214428A1.
# Target: HeV G envelope glycoprotein (on effector cells expressing HeV F and G, or on infectious HeV) (Hendra virus) (UniProt O89343)
# Experiment: cell-based or functional assay
# HeV G envelope glycoprotein (on effector cells expressing HeV F and G, or on infectious HeV) (Hendra virus), sequence (O89343 whole entry): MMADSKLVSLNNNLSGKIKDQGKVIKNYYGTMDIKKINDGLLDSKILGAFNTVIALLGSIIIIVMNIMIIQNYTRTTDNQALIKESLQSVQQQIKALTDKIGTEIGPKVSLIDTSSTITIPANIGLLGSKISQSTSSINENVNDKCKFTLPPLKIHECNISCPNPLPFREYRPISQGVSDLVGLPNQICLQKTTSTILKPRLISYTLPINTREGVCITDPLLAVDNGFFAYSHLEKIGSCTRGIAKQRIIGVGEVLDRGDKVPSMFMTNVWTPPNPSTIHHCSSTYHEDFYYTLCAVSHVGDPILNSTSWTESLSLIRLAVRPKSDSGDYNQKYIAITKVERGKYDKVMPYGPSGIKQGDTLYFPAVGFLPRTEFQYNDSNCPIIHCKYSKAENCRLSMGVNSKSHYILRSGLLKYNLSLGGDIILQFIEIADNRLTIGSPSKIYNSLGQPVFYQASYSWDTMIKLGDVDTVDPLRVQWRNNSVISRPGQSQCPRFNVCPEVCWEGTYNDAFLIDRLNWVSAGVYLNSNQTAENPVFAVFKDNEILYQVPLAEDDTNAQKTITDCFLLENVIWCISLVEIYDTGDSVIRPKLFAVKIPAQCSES
substance,measurement,value
Fab X5,"syncytia per complete photograph view, control antibody (17 without antibody) (syncytia per view)",20
